The text below walks through data of patent publication US20210347900A1 (AstraZeneca / MedImmune, published 2021).

Like-named read-outs stand apart in the source and are kept apart here.

For assay [1], the target named is T1, human LOX1 on cells (human LOX1 transfected CHO TREX cells) (human, UniProt P78380 1-273).
T1 construct: whole, on cells; also called hLOX1 transfected cells; hLOX1 CHO
The assay can be described thus: competition with DyLight 649 oxLDL on hLOX1 CHO TREX cells (FMAT), mean.

The target in assay [2] is T1, human LOX1 on cells (human LOX1 …). The assay can be described thus: cell-based or functional assay.
The target of assay [3] is T2, recombinant human LOX1 (R&D Systems) (human, UniProt P78380 61-273). Description: competition with biotin CRP on immobilised recombinant hLOX1 (DELFIA), mean.
Assay [4] has as its target T3, rabbit LOX1-(FlagHis) extracellular domain (rabbit, UniProt Q9XTA8 55-274).
T3 construct: extracellular domain
Description: IgG binding ELISA on coated antigen, europium anti-human IgG detection. In general terms: An ELISA detects its analyte on a solid surface through an enzyme-linked reagent.

Assay [5] deals with T4, rat LOX1-(FlagHis) extracellular domain (rat, UniProt O70156 55-364).
T4 construct: extracellular domain
T4 sequence (O70156 55-364): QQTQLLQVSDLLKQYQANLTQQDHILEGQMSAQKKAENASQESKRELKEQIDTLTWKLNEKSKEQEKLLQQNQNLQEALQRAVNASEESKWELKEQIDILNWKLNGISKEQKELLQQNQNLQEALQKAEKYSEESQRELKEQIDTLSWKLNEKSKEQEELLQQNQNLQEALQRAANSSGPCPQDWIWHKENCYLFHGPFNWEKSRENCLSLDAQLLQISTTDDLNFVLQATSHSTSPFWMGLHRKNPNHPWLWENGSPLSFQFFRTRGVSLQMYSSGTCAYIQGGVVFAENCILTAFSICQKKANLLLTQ
Described as above.

Assay [6] concerns the target T5, mouse LOX1-(FlagHis) extracellular domain (mouse, UniProt Q9EQ09 55-363).
T5 construct: extracellular domain
Described as above.

Assay [7] deals with T6, Human CLEC-1A (human, UniProt Q8NC01 74-280, limits assumed).
T6 construct: Bought protein; also called C-type lectin domain family 1 member A
T6 sequence (looked up): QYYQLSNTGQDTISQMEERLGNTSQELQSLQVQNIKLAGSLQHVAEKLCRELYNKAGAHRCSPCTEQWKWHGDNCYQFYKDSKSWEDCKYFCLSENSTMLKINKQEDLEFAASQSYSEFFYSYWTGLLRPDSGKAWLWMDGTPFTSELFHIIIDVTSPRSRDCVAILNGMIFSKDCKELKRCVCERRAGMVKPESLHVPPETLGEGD
The assay can be described thus: IgG binding ELISA on coated antigen, absorbance at 450 nm.

Assay [8] has as its target T7, Human CLEC-1B (CLEC-2) (human, UniProt Q9P126 58-229, limits assumed).
T7 construct: Bought protein; also called C-type lectin domain family 1 member B
The assay is described as above.

Assay [9] has as its target T8, Human CLEC-4L (DC-SIGN) (human, UniProt Q9NNX6 62-404).
T8 construct: Bought protein; also called C-type lectin domain family 4 member L
T8 sequence (looked up): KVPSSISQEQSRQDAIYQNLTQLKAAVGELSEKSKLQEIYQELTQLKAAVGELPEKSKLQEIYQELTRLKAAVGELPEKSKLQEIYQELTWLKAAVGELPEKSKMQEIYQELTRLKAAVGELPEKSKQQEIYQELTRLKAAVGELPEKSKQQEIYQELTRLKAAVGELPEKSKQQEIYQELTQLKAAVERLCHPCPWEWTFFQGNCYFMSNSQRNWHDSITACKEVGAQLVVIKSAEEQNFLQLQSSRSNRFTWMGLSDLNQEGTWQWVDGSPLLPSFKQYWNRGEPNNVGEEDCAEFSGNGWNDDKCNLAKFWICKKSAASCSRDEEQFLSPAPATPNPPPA
The assay is described as above.

Assay [10] addresses T9, Human CLEC-7A (Dectin-1) (human, UniProt Q9BXN2-2 66-201, limits assumed).
T9 construct: Bought protein; also called C-type lectin domain family 7 member A
T9 sequence (looked up): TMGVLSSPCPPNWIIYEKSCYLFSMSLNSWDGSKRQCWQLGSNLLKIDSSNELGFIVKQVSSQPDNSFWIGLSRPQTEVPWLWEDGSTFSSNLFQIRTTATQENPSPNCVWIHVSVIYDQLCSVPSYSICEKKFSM
Described as above.

Assay [11] addresses T10, Human SR-B3 (CD36) (human, UniProt P16671 30-439).
T10 construct: Bought protein; also called Platelet glycoprotein 4
The assay is described as above.

For assay [12], the target named is T11, Human SR-A1 (MSR) (human, UniProt P21757 77-451).
T11 construct: Bought protein; also called Macrophage scavenger receptor types I and II
T11 sequence (looked up): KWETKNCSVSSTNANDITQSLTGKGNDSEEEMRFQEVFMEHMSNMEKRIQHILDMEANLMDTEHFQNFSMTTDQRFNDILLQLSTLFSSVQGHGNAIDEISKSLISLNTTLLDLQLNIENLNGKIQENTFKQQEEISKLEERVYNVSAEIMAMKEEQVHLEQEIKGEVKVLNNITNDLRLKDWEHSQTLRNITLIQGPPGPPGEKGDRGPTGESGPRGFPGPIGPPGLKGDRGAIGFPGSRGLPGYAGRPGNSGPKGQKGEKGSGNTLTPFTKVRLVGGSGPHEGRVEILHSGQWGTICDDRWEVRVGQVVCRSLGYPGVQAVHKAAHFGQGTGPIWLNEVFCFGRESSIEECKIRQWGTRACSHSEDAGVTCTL
The description is as above.

The target in assay [13] is T1, human LOX1 on cells (human LOX1 …). Description: competition with DyLight 649 AGE-BSA on human LOX1 CHO TREX cells, FMAT.
Assay [14] shares this target. The assay can be described thus: competition with DyLight 649 AGE-BSA on hLOX1 CHO TREX cells (FMAT), mean.
For assay [15], the target named is T2, recombinant human LOX1 (R&D Systems). Description: competition with biotin CRP on plate-bound recombinant human LOX1, DELFIA.
In assay [16] the target is T1, human LOX1 on cells (human LOX1 …). The assay can be described thus: competition with DyLight 649 oxLDL on human LOX1 CHO TREX cells, FMAT.
The target of assay [17] is T12, human LOX1 SNP K167N variant on cells (K167N SNP transfected CHO TREX cells) (human, UniProt P78380 1-273).
T12 construct: whole, on cells; also called hLOX1 K167N; K167N hLOX1 CHO
Description: competition with DyLight 649 oxLDL on human LOX1 K167N CHO TREX cells, FMAT.

In assay [18] the target is T12, human LOX1 SNP K167N variant on cells …. The assay can be described thus: competition with DyLight 649 oxLDL on K167N hLOX1 CHO TREX cells (FMAT), mean.
Assay [19] has as its target T2, recombinant human LOX1 (R&D Systems). The assay can be described thus: competition with biotin CRP on plate-bound recombinant human LOX1, DELFIA. The source holds these as a separate data set.
Assay [20] concerns the target T1, human LOX1 on cells (human LOX1 …). The assay can be described thus: competition with DyLight 649 AGE-BSA on human LOX1 CHO TREX cells, FMAT. This is another data set of the same source.
Assay [21] addresses T2, recombinant human LOX1 (R&D Systems). The assay can be described thus: competition with biotin CRP on immobilised recombinant hLOX1 (DELFIA); row label not given, assay assigned by block order of Table 5.
Assay [22] has as its target T1, human LOX1 on cells (human LOX1 …). The assay can be described thus: competition with DyLight 649 AGE-BSA on hLOX1 CHO TREX cells (FMAT); row label not given, assay assigned by block order of Table 5.
For assay [23] the target is unchanged. The assay can be described thus: saturation binding of DyLight 649 labelled antibody on hLOX1 CHO TREX cells (FMAT); DyLight 649 labeled antibody on hLOX1 CHO TREX cells.
For assay [24] the target is unchanged. Description: cell-based or functional assay. The source holds these as a separate data set.
The target of assay [25] is T6, Human CLEC-1A. Description: IgG binding ELISA on coated antigen, absorbance at 450 nm. This is another data set of the same source.
The target in assay [26] is T7, Human CLEC-1B (CLEC-2). The description is as above. This is another data set of the same source.
Assay [27] deals with T8, Human CLEC-4L (DC-SIGN). The description is as above. The source holds these as a separate data set.
Assay [28] has as its target T9, Human CLEC-7A (Dectin-1). The assay is described as above. The source holds these as a separate data set.
The target of assay [29] is T10, Human SR-B3 (CD36). The assay is described as above. The source holds these as a separate data set.
Assay [30] has as its target T11, Human SR-A1 (MSR). Described as above. The source holds these as a separate data set.
In assay [31] the target is T1, human LOX1 on cells (human LOX1 …). Description: competition with DyLight 649 oxLDL on hLOX1 CHO TREX cells (FMAT); row label not given, assay assigned by block order of Table 5.

T10 sequence (P16671 30-439 limits assumed): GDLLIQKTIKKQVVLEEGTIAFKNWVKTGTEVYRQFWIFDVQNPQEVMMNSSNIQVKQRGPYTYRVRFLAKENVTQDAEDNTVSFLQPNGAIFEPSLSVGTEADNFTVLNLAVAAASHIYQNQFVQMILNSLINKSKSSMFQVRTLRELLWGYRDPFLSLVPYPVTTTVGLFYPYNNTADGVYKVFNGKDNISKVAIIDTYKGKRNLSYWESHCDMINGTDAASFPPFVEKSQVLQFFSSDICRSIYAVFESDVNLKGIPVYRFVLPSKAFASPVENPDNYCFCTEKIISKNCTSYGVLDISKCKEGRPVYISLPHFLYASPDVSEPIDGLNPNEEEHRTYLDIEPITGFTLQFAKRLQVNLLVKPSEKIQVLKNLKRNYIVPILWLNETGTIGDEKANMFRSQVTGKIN
T7 sequence (Q9P126 58-229 limits assumed): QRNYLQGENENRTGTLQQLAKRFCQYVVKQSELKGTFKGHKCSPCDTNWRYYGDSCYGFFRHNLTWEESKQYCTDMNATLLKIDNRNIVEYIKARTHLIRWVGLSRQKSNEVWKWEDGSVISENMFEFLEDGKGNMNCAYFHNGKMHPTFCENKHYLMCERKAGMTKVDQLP
T5 sequence (Q9EQ09 55-363): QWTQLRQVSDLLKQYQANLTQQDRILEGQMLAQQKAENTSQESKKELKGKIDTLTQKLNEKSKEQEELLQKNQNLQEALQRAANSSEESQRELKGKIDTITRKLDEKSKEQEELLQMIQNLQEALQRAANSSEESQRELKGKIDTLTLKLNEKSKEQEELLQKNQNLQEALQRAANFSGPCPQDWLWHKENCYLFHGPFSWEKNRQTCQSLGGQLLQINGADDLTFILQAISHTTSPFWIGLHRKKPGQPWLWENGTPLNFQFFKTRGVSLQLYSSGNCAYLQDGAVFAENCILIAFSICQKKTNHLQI
T3 sequence (Q9XTA8 55-274): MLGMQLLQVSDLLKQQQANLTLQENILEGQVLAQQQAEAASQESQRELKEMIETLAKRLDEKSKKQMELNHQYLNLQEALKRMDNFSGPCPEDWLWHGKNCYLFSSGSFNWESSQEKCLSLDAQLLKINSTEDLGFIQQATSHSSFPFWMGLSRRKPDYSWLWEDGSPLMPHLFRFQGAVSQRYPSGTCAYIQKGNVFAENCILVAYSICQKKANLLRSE

B1: LX6960073_G82bS_gl IgG1-TM (antibody, V domains shown)
VH: EVQLVESGGGLVQPGRSLRLSCAASGFTSDDYAMHWVRQAPGKGLEWVSGISWNSGSIGYADSVKGRFTISRDNAKNSLYLQMNSLRAEDTAVYYCAREGSWNYDALDIWGQGTMVTVSS
VL: QSALTQPASVSGSPGQPITISCTGTSSDVGGYNYVSWYQQHPGKAPKLMIYDVSKRPSGVSNRFSGSKSGNTASLTISGLQAEDEADYYCMGGMGRSTNWVFGGGTKLTVL
notes: Whole human IgG1-TM, germlined, with heavy chain G82bS (Kabat); also called LOX10696_73
Usually IC50 stands for the point on the concentration scale where inhibition reaches its midpoint. Take B1: the IC50 in [1] was 0.02 nM; in [3], 3 nM; in assay [14], 0.0177 nM; in assay [18], 0.105 nM. Also, the “ROS ASSAY (IC50, mean)” value in assay [2] stood at 2.21 nM. In addition, the “oxLDL/hLOX1 CHO Internalisation (IC50, mean)” value in assay [2] is 380 pM. Besides, the binding result was “no binding (tested: 10 µg/mL (single concentration))” in assay [4]; “no binding (tested: 10 µg/mL (single concentration))” in assay [5]; “no binding (tested: 10 µg/mL (single concentration))” in assay [6]; “no binding” in assay [7]; “no binding” in assay [8]; “no binding” in assay [9]. Besides, the binding result in assay [10], in assay [11] and in [12] was “no binding” in each case. In addition, the “IC50 (read off the curve)” value is about 20 pM in assay [13], about 3 nM in assay [15], about 800 pM in assay [16] and about 300 pM in [17].

B2: LOX514 IgG1-TM (antibody, V domains shown)
VH: QVQLVQSGAEVKKPGASVKVSCKVSGYTLTELSMHWVRQAPGKGLEWMGGFDPEDGETIYAQKFQGRVTMTEDTSTDTAYMELSSLRSEDTAVYYCATPNGQQGKGVRGWDYYYGMDVWGRGTTVTVSS
VL: QSVVTQPPSVSGAPGQRVTISCTGSSSNIGAGYDVHWYQQLPGTAPKLLIYGNSNRPSGVPDRFSGSKSGTSASLAITGLQAEDEADYYCQSYDSSLSGWVFGGGTKLTVL
notes: Whole human IgG1-TM (L234F/L235E/P331S); Labelled with DyLight 649 in Assay 7; also called LOX10514-IgG1-TM; LOX10514 IgG1-TM
The Kd is the free concentration of one partner at which half of the binding sites on the other are occupied at equilibrium, for simple one-to-one binding. For B2, the figures for the “IC50 (read off the curve)” value in assay [19] and in [20] were about 2 nM and about 100 pM, respectively. Moreover, the results for the IC50 in assay [21], in assay [22] and in assay [31] were 1.98 nM, 0.207 nM and 0.642 nM, respectively. In assay [23], this molecule showed a Kd of 0.8 nM. For the same molecule, in assay [24], the “IC50 of inhibition of Cypher 5E oxLDL internalization in hLOX1 CHO TREX cells (row label not given; assay assigned by block order of Table 5)” value came to 772 pM. Also, the “IC50 of inhibition of oxLDL-dependent ROS generation in hLOX1 CHO TREX cells (row label not given; assay assigned by block order of Table 5)” value in assay [24] was determined as 8.28 nM. Besides, the binding result in [25], in assay [26], in assay [27], in assay [28], in assay [29] and in assay [30] was “no binding (tested: 0.2 µg/mL (single concentration))” in each case.
